The series has as its system Cc1cccc(O)c1O. As to the kind of experiment: purified protein. The settings on record: 10 mM Mn2+, 50 mM phosphate pH 7.5, 32.5 °C.

These results are taken from PMC9925492, “Reduction of phenolics in faba bean meal using recombinantly produced and purified Bacillus ligniniphilus catechol 2,3-dioxygenase” (Bioresources and Bioprocessing, 2023).

Consider “BLC23O (Halalkalibacterium ligniniphilum)”, for which the Km is on record as 379 ± 86 µM and the kcat worked out at 0.13 ± 0.01 s⁻¹.

Usually Km stands for the concentration of substrate that gives half-maximal velocity. For orientation: kcat means the maximal rate divided by the concentration of active sites.
